Measurements as given in patent US20230167174A1.

Columns and labels:
[1] = target: T1, hTREM2 ECD (19-174)-hFc (human) (UniProt Q9NZC2); assay: SET
T1 sequence (chain, biotinylated where printed -bio): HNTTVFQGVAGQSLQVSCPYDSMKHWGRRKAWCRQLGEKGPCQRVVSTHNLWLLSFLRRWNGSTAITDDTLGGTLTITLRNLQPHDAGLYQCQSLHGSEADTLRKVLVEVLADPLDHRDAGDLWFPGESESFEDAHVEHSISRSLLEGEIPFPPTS

[2] = target: cyTREM2 ECD (19-174)-APP-Avi (cynomolgus); assay: SET
[3] = target: cynomolgus TREM2 on CHO-hDAP12-cyTREM2 cells (cynomolgus); assay: FACS, CHO-cyTREM2
Sequence of cynomolgus TREM2 on CHO-hDAP12-cyTREM2 cells (cynomolgus) (chain, as listed by the source): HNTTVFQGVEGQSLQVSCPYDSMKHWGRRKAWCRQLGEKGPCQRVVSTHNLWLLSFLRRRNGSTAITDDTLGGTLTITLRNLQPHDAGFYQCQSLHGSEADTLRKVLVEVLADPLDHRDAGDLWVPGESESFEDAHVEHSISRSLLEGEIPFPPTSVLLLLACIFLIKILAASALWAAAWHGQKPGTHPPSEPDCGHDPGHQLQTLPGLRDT

[4] = target: T2, human TREM2 endogenously expressed (hM2A macrophages, THP1-B5 cells, iPS derived microglia) (human) (UniProt Q9NZC2); assay: FACS, hM2A
T2 sequence (looked up): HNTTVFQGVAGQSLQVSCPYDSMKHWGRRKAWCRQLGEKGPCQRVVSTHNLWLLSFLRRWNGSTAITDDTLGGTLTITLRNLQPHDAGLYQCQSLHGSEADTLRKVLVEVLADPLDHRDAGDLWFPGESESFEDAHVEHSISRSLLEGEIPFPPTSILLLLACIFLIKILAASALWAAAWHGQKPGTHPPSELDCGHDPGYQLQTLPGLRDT

[5] = target: T1, hTREM2 ECD (19-174)-hFc (human); assay: SET screening
[6] = target: T3, human TREM2 on CHO-hDAP12-hTREM2 cells (human) (UniProt Q9NZC2); assay: FACS, CHO-hTREM2
T3 sequence: T2 sequence (looked up)

[7] = target: T1, hTREM2 ECD (19-174)-hFc (human); assay: SPR, label free kinetics
[8] = target: cyTREM2 ECD (19-174)-APP-Avi (cynomolgus); assay: SPR, label free kinetics
[9] = target: T2, human TREM2 endogenously expressed (hM2A macrophages, THP1-B5 cells, iPS derived microglia) (human); assay: FACS, hM2A, donor 3
[10] = target: T3, human TREM2 on CHO-hDAP12-hTREM2 cells (human); assay: cell-based or functional assay
[11] = target: T2, human TREM2 endogenously expressed (hM2A macrophages, THP1-B5 cells, iPS derived microglia) (human); assay: cell-based or functional assay
[12] = target: T2, human TREM2 endogenously expressed (hM2A macrophages, THP1-B5 cells, iPS derived microglia) (human); assay: FACS, hM2A, median of 4 donors
[13] = target: T2, human TREM2 endogenously expressed (hM2A macrophages, THP1-B5 cells, iPS derived microglia) (human); assay: FACS, hM2A, donor 1
[14] = target: T2, human TREM2 endogenously expressed (hM2A macrophages, THP1-B5 cells, iPS derived microglia) (human); assay: FACS, hM2A, donor 2
[15] = target: cyTREM2 ECD (19-174)-hFc (cynomolgus); assay: recombinant protein binding
[16] = target: T4, hTREM2 IgSF-hTREM1 stalk-hFc (human) (UniProt Q9NZC2); assay: recombinant protein binding
T4 sequence (looked up): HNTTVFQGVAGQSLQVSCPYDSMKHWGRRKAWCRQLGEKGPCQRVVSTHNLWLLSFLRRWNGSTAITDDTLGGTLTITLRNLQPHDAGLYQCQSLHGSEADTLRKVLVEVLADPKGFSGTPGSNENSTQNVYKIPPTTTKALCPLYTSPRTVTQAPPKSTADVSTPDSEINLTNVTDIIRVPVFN

[17] = target: T1, hTREM2 ECD (19-174)-hFc (human); assay: recombinant protein binding
[18] = target: T2, human TREM2 endogenously expressed (hM2A macrophages, THP1-B5 cells, iPS derived microglia) (human); assay: FACS, hM2A, donor 4

Kd [1]: 0.003 nM | Kd [2]: 0.004 nM | EC50 [3]: 0.65 nM | EC50 [4]: < 2 nM | Kd [5]: < 0.6 nM | EC50 [6]: 0.16 nM | Kd [7]: 0.003 nM | Kd [8]: 0.004 nM | EC50 [9]: 0.54 nM | Internalization compared to parental after 6 h [10]: 0.7 fold | Internalization; fold over background after 6 h [10]: 33.3 fold | Fold TREM2 cell surface increase compared to isotype (hM2A, 100 nM) [11]: 5.1 fold | TREM2 activation (fold in RGA) [11]: 1.3 fold | lowest active concentration, phagocytosis in hM2A [11]: 1 nM | EC50 [12]: 0.59 nM | EC50 [13]: 0.73 nM | EC50 [14]: 0.54 nM | S/BG [15]: > 5 | S/BG [16]: > 20 | S/BG [17]: > 5 | EC50 [18]: 0.64 nM
B1: MOR044746 (antibody, from a related filing, V domains shown)
VH: QVQLQQSGPGLVKPSQTLSLTCAISGDSVSSSSAAWNWIRQSPSRGLEWLGHIGYRSKWYNEYAVSVKSRITINPDTSKNQFSLQLNSVTPEDTAVYYCARGMYGSVPYKEGYYFDIWGQGTLVTVSS
VL: DIQMTQSPSSLSASVGDRVTITCRASQGISSDLNWYQQKPGKAPKLLIYAASNLQSGVPSRFSGSGSGTDFTLTISSLQPEDFATYYCQQYTDESMTFGQGTKVEIK
